Assay results taken from PMC12105683, “Generation of Conformation‐Specific Monoclonal Antibodies for Integral Membrane Proteins” (Current Protocols, 2025).
Numbering of substitutions follows the chain as printed. Each block holds one binder with its values, some of them ahead of it.

Key:
Details in all cases: both partners purified
GluN1/GluN2A NMDAR = biological target: T1, GluN1/GluN2A NMDAR (Rattus norvegicus, UniProt P35439;G3V9C5); experiment: SEC; fluorescence-detection SEC (FSEC) shift assay; receptor incubated with mAbs individually and in combination at a 1:2 molar ratio; Superose 6 Increase 10/300 GL, 20 mM Tris, 150 mM NaCl, 0.075% LMNG
T1 construct: GluN1 subunit of the NMDA receptor; GluN2A subunit of the NMDA receptor; also called GluN1/N2A receptor; GluN1/N2A; source: HEK293S GnTI- cells/tSA201 cells, baculovirus transduction (pEG BacMam); copies: 2 + 2

GluN1 = biological target: T2, GluN1 (Xenopus laevis, UniProt A0A1L8F5J9); experiment: BLI; Octet RED384; mAb (25 µg/ml) captured on anti-mouse IgG Fc capture (AMC) biosensors, iGluR as analyte; TBS with 0.075% LMNG or 1 mM DDM; association 900 s, dissociation 1800 s; 1:1 model, global fit
T2 construct: also called GluN1 subunit; source: HEK293S GnTI- cells/tSA201 cells, baculovirus transduction (pEG BacMam)

TARP γ‐8 [1] = biological target: T3, TARP γ‐8 (Mus musculus, UniProt Q8VHW2); experiment: SEC; fluorescence-detection SEC (FSEC) shift assay; receptor incubated with mAbs individually and in combination at a 1:2 molar ratio; Superose 6 Increase 10/300 GL, 20 mM Tris, 150 mM NaCl, 0.075% LMNG
T3 construct: TARP γ-8, AMPAR auxiliary subunit; also called transmembrane AMPAR regulatory protein γ-8; source: HEK293S GnTI- cells/tSA201 cells, baculovirus transduction (pEG BacMam)

TARP γ‐2 [2] = biological target: T4, TARP γ‐2 (printed accession Q71RJ2 is rat; table …, UniProt Q71RJ2); experiment: BLI; Octet RED384; mAb (25 µg/ml) captured on anti-mouse IgG Fc capture (AMC) biosensors, iGluR as analyte; TBS with 0.075% LMNG or 1 mM DDM; association 900 s, dissociation 1800 s; 1:1 model, global fit
T4 construct: TARP γ-2 (stargazin), AMPAR auxiliary subunit; also called transmembrane AMPAR regulatory protein γ-2; source: HEK293S GnTI- cells/tSA201 cells, baculovirus transduction (pEG BacMam)
T4 sequence (Q71RJ2 whole entry, one chain of several): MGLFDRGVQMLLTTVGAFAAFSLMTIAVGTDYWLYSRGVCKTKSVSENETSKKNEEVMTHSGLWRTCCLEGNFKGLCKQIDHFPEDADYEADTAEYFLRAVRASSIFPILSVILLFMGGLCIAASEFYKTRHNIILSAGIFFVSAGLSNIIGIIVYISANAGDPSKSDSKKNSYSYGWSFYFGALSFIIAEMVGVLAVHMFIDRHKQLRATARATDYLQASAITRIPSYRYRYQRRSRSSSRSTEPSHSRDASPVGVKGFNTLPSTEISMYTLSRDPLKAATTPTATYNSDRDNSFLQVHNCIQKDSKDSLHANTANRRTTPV

GluA2 AMPAR = biological target: T5, GluA2 AMPAR (Rattus norvegicus, UniProt P19491); experiment: as above
T5 construct: GluA2 subunit of the AMPA receptor; source: HEK293S GnTI- cells/tSA201 cells, baculovirus transduction (pEG BacMam)

GluN3A = biological target: T6, GluN3A (Rattus norvegicus, UniProt P35439;Q9R1M7); experiment: as above
T6 construct: also called GluN3A subunit; source: HEK293S GnTI- cells/tSA201 cells, baculovirus transduction (pEG BacMam)

GluN2A = biological target: T7, GluN2A (Rattus norvegicus, UniProt P35439;G3V9C5); experiment: as above
T7 construct: also called GluN2A subunit; source: HEK293S GnTI- cells/tSA201 cells, baculovirus transduction (pEG BacMam)

GluA1 AMPAR = biological target: T8, GluA1 AMPAR (Rattus norvegicus, UniProt P19490-2); experiment: as above
T8 construct: GluA1 subunit of the AMPA receptor; source: HEK293S GnTI- cells/tSA201 cells, baculovirus transduction (pEG BacMam)

[3] = biological target: T9, GFP-conjugated GluN1/GluN3A receptor (Rattus norvegicus, UniProt P35439;Q9R1M7); experiment: SEC; fluorescence-detection SEC (FSEC) shift assay; receptor incubated with mAbs individually and in combination at a 1:2 molar ratio; Superose 6 Increase 10/300 GL, 20 mM Tris, 150 mM NaCl, 0.075% LMNG
T9 construct: GluN1 subunit of the NMDA receptor; GluN3A subunit of the NMDA receptor; also called GluN1/GluN3A NMDAR; GluN1/N3A NMDAR; source: HEK293S GnTI- cells/tSA201 cells, baculovirus transduction (pEG BacMam); copies: 2 + 2

GluA3 AMPAR = biological target: T10, GluA3 AMPAR (Rattus norvegicus, UniProt P19492); experiment: BLI; Octet RED384; mAb (25 µg/ml) captured on anti-mouse IgG Fc capture (AMC) biosensors, iGluR as analyte; TBS with 0.075% LMNG or 1 mM DDM; association 900 s, dissociation 1800 s; 1:1 model, global fit
T10 construct: GluA3 subunit of the AMPA receptor; source: HEK293S GnTI- cells/tSA201 cells, baculovirus transduction (pEG BacMam)

TARP γ‐2 [4] = biological target: T4, TARP γ‐2; experiment: SEC; fluorescence-detection SEC (FSEC) shift assay; receptor incubated with mAbs individually and in combination at a 1:2 molar ratio; Superose 6 Increase 10/300 GL, 20 mM Tris, 150 mM NaCl, 0.075% LMNG
TARP γ‐8 [5] = biological target: T3, TARP γ‐8; experiment: BLI; Octet RED384; mAb (25 µg/ml) captured on anti-mouse IgG Fc capture (AMC) biosensors, iGluR as analyte; TBS with 0.075% LMNG or 1 mM DDM; association 900 s, dissociation 1800 s; 1:1 model, global fit

B3: 15F1 mAb (antibody, V domains shown)
VH: QAQLKESGPGLVAPSQSLSITCTVSGFSLTNYGVHWVRQPPGKGLEWLGVIWAGGSTNYNSALMSRVSISKDNSKSQVFLKMNSLQTDDTVMYYCAREDYDYDWHFDVWGAGTTVTVSS
VL: EIQMTQTTSSLSASLGDRVTISCRASQDISNYLSWYQQKPDGTVKLLIYYTSRLHSGVPSRFSGSGSGIDYSLTINNLEQEDFATYFCQQGNTLPLTFGAGTKLELK
notes: IgG1/kappa; source: mouse hybridoma, bioreactor flask; purified (Protein A/G agarose)
Kd (GluA2 AMPAR): < 0.001 nM
koff (GluA2 AMPAR): < 1e-07 s⁻¹
kon (GluA2 AMPAR): 1.02e+06 M⁻¹ s⁻¹

B5: 3D2 mAb (antibody, V domains shown)
VH: QVQLQQSGAELMKPGASVKISCKATGYTFRSYWIEWLKQRPGHGLEWIGEILPGSGRTNYNEKFKGKATITADTSSNTAYMQLSSLTSEDSAVYYCTRSRGTMITREFTYWGQGALVTVSA
VL: DIVLTQSPASLAVSLGQRATISCRASESVEYYGTTLMQWYQQKPGQPPKLLIYAASNVDSGVPARFSGSGSGTDFSLNIHPVEEDDIAMYFCQQSRKVPSTFGGGTKLEIK
notes: as for B3
koff (GluN2A): < 1e-07 s⁻¹
kon (GluN2A): 1.85e+06 M⁻¹ s⁻¹

B6: 11B8 mAb (antibody, V domains shown)
VH: EVKLLESGGGLVQPGGSLKLSCAASGFDFSEYWMSWVRQAPGKGLEWIGEINPDSSSIDYTPSLKDKIIISRDNAKKTLYLQLSKVRSEDTALYYCARPRGNYVVMDYWGQGTSVTVSS
VL: NIVLTQSPASLAVSLGQRATISCRASESVDSYGSSFVHWYQQKPGQPPKLLIFLASKLESGVPARFSGSGSRTDFTLTIDPVEADDAATYYCQQTNEDPYTFGGGTKLEIK
notes: IgG2b/kappa; source: mouse hybridoma, bioreactor flask; purified (Protein A/G agarose)
koff (GluA1 AMPAR): < 1e-07 s⁻¹
kon (GluA1 AMPAR): 123000 M⁻¹ s⁻¹

B8: 5B2 mAb (antibody, V domains shown)
VH: EVQLQESGPSLVKPSQTLSLTCSVTGDSITSGYWNWIRKFPGNKLEYMGHISYRGSTYYNPSLKSRISITRDTSKNQYYLQLNSVTTEDTATYYCASRSYDEGFDSWGQGTTLTVSS
VL: NIVLTQSPASLAVSLGQRATISCRASESLDSYGNSFMHWYQQKPGQPPKLLIYLASNLESGVPARFSGSGSRTDFTLTIDPVEADDAATYYCQQNKEDLLTFGAGTKLELK
notes: as for B3
Kd (GluA3 AMPAR): < 0.001 nM
koff (GluA3 AMPAR): < 1e-07 s⁻¹
kon (GluA3 AMPAR): 758000 M⁻¹ s⁻¹

B9: 9B5 mAb (antibody, V domains shown)
VH: EVQLQQSGAELVRSGASVKLSCTTSGFNIKDYYMHWVKQRPEQGLEWIGWIDPENGDAEYAPKFQGKATMTADTSSNTAYLQLSSLTSEDTAVYYCNSGVAYWGQGTLVTVSA
VL: not shown
notes: IgG2a/kappa; source: mouse hybridoma, bioreactor flask; purified (Protein A/G agarose)
binding result (TARP γ‐2 [4]): binds
Kd (TARP γ‐8 [5]): 3.1 nM
koff (TARP γ‐8 [5]): 0.00103 s⁻¹
kon (TARP γ‐8 [5]): 45900 M⁻¹ s⁻¹

Next, values leading:

binding result (GluN1/GluN2A NMDAR): binds
Kd (GluN1): 0.43 nM
koff (GluN1): 6.19e-05 s⁻¹
kon (GluN1): 142000 M⁻¹ s⁻¹
B1: 5F11 mAb (antibody, V domains shown)
VH: QGQMQQSGAELVKPGASVKLSCKTSGFSFSTSYINWLKQKPGQSLEWIAWIYAGTDGTSYNQKFTDKAQLTVDTSSSTAYMQFSSLTTDDSAIYYCAREGIYYGNYAGFTYWGQGTLVTVSA
VL: DIVMTQSPSSLAVTAGEKVTMRCKSSQSLLWSVNQNNYLSWYQQKQGQPPKLLIYGASIRESWVPDRFTGSGSGTDFTLTISNVHAEDLAVYYCQHNHGSFLPYTFGGGTKLEIK
notes: as for B3

binding result (TARP γ‐8 [1]): binds
Kd (TARP γ‐2 [2]): 4.5 nM
koff (TARP γ‐2 [2]): 0.000119 s⁻¹
kon (TARP γ‐2 [2]): 50300 M⁻¹ s⁻¹
B2: 4B2 mAb (antibody, V domains shown)
VH: EVQLQQSGAELVRSGASVKLSCTGSGFNIKDYYMHWVKQRPEQGLEWIGWIDPENGDTEYAPKFQGKATMTADTSSNTAYLHLSSLSSEDTAVYYCKGDYRYDDGGNYWGQGTSVTVSS
VL: B3 VL with E1D, S34N, Y36F, I69T, F83I, N92D, T93S, L96W, A100G, L106I
notes: as for B9

Kd (GluN3A): 1.4 nM
koff (GluN3A): 1.99e-05 s⁻¹
kon (GluN3A): 83700 M⁻¹ s⁻¹
B4: 5E3 mAb (antibody, V domains shown)
VH: QVQLQQPGAELVRPGASVKLSCKASGYSFTSYWMNWVKQRPGQGLEWIGMIHPSDSESRLNQKFKDKATLTVDKSSSTAYMQLRSPTSEDSAVYYCARSAYYRSFDYWGQGTTLTVSS
VL: DVLMTQTPLSLPVSLGDQASISCRSSQNIVHSNGNTYLEWYLQKPGQSPKLLIHKVSNRFSGVPDRFSGSGSGTDFTLKISRVEAEDLGVYYCFQGSHVPYTFGGGTKLEIK
notes: IgG1/kappa; source: purified (Protein A/G agarose)

binding result [3]: binds
B7: 3G9 mAb (antibody, V domains shown)
VH: KVQLQQSGAGLVKPGASVKLSCKASGYTFTDYIIHWIKQRSGQGLEWIGWFYPGSGSIKYNEKFKDKATLTADYSSSTVYMELSRLTSEDSAVYFCARHEHRGYYGDYPMDYWGQGTSVTVSS
VL: DIVMSQSPSSLAVSVGEKVTMSCKSSQSLLYSNNQKNYLAWYQQKPGQSPKLLIYWASTRESGVPDRFTGSGSGTDFTLTISSVKAEDLAVYYCQQYYSYPPYTFGGGTKLEIK
notes: IgG2a/kappa; source: purified (Protein A/G agarose)

binding result [3]: binds
B10: 2D3 mAb (antibody, V domains shown)
VH: EVQLVESGGGLVKPGGSLKLSCAASGFAFSTYDMSWVRQTPEKRLEWVAYISGGGGTTYYPGTVKGRFTISRDNAKNTLYLQMSSLKSEDTAMYYCARQGYGYSMDYWGQGTSVTVSS
VL: DVVMTQTPLSLPVSLGDQASISCRSSQSLVHSNGDTYLLWYLQKPGQSPKLLIYKVSNRFSGVPDRFSGSGSGTDFTLKISRVEAEDLGVYFCSQSTHVPRTFGGGTKLEIK
notes: IgG2b/kappa; source: purified (Protein A/G agarose)
